{"source": "paper PMC8142884", "molecular_target": "S2H14 (variable region fused with the constant region of IgG1)", "experiment": "SPR"}
{"substance": "SARS-CoV-2 receptor binding domain (RBD), His-tagged (from UniProt P0DTC2 319-541) (domain or fragment)", "values": [{"measurement": "Kd", "value": 4.12, "unit": "nM"}]}
